Measurements reported in article PMC8931381 (Proceedings of the National Academy of Sciences of the …, 2022).
Like-named read-outs stand apart in the source and are kept apart here.

Experiments:
cryo-EM structure [1] = target: the molecule itself; test: cryo-EM structure
cryo-EM structure [2] = target: the molecule itself; test: cryo-EM structure; remark: listed apart in the source

B1: FliL of Borrelia burgdorferi (BbFliL) (natural protein, UniProt Q57442 1-178, looked up)
chain: MPNKDDDNLDMGDSNVSRKGGLLPDIIIKILQILAIGIFTVAIMIIVSYFVSKMVVSQSGAPSDFPVFSNEYLGKPPMLIWYESIDEIRGNTLDVPPKTFVVKLALGYAENNVNILNELGRQKVRLKDIIREYFSQRTGQEIKNESQIKAEIKARINSILRNGEIKEIALTQIDIFDM
Q: How did the “stoichiometry N” value (cryo-EM structure [1]) turn out when B1 was run?
A: Its value is 4.

Q: And the “stoichiometry N” value (cryo-EM structure [2])?
A: Its value is 10.
